Reference: patent publication US20230181729A1 (IMMATICS BIOTECHNOLOGIES, published 2023)

B1: TCR R16P1E8 (TCR, V domains shown)
V domain 1: QKEVEQDPGPLSVPEGAIVSLNCTYSNSAFQYFMWYRQYSRKGPELLMYTYSSGNKEDGRFTAQVDKSSKYISLFIRDSQPSDSATYLCAMSEAAGNKLTFGGGTRVLVKP
V domain 2: EAGVAQSPRYKIIEKRQSVAFWCNPISGHATLYWYQQILGQGPKLLIQFQNNGVVDDSQLPKDRFSAERLKGVDSTLKIQPAKLEDSAVYLCASSYTNQGEAFFGQGTRLTVVE
B2: TCR R17P1D7 (TCR, V domains shown)
V domain 1: QTVTQSQPEMSVQEAETVTLSCTYDTSESDYYLFWYKQPPSRQMILVIRQEAYKQQNATENRFSVNFQKAAKSFSLKISDSQLGDAAMYFCAYRWAQGGSEKLVFGKGTKLTVNP
V domain 2: DIYQTPRYLVIGTGKKITLECSQTMGHDKMYWYQQDPGMELHLIHYSYGVNSTEKGDLSSESTVSRIRTEHFPLTLESARPSHTSQYLCATELWSSGGTGELFFGEGSRLTVLE

Biological target: HLA-A*02/PRAME-004 presented on cells (PRAME-004-loaded T2 cells or PRAME-004-positive tumor cell lines) (human)
Test: cell-based or functional assay

Binder | EC50 of IFNγ release by CD8+ T cells re-expressing the TCR; T2 cells loaded with PRAME-004 (10 µM to 10 pM)
B1 | ~1 µM
B2 | 1.83 nM
